Among the data in a protein production outcome set (Wang et al. 2014) are protein production values, retold here.

This data set in a line: label from the status in PepcDB records.
As for “MSLKVHHIGYAVKNIDSALKKFKRLGYVEESEVVRDEVRKVYIQFVINGGYRVELVAPDGEDSPINKTIKKGSTPYHICYEVEDIQKSIEEMSQIGYTLFKKAEIAPAIDNRKVAFLFSTDIGLIELLEKEGHHHHHH”, the protein production result was “not failed”. For “MSLKYGHVAWIQQILDGSYADAMNTLKNITVDDSKKGESLSECELHLNVAKLSSLLVEKDNLDINTLRKIQYNLDTIDAEKNISNKLKKGEVQICKRFKNGSIREVFNILVEELKSTTVVNLSDLVELYSMLDDEESLFIPLRLLSVDGNLLNFEVKKFLNALVWRRIVLLNASNEGDKLLQHIVKRVFDEELPKNNDFPLPSVDLLCDKSLLTPEYISETYGRFPIDQNAIREEIYEEISQVETLNSDNSLEIKLHSTIGSVAKEKNYTINYETNTVEYEGHHHHHH” the value was “not failed”; for “MSLLDAHIPQLIASHTAFAAKAGLMRHTIGQAEQQAMSAQAFHQGESAAAFQGAHARFVAAAAKVNTLLDIAQANLGEAAGTYVAADAAAASSYTGF”, “failed”; for “MSLLDFYIIWRGDMLFATVVPIAYFLLYLKNKQVTFVFLKFVMAFVICLYWATYACTFFYSYYDVIGWFKILIIPVFSIYSGFVLHLLKSKKKKVFFLISIVYIIFWCILIFWHCMSSM”, “failed”. The same measure for “MSLLLCDIGNSNANFLDDNKYFTLNIDQFLEFKNEQKIFYINVNEHLKEHLKNQKNFINLEPYFLFDTIYQGLGIDRIAACYTIEDGVVVDAGSAITIDIISNSIHLGGFILPGIANYKKIYSHISPRLKSEFNTQVSLDAFPQKTMDALSYGVFKGIYLLIKDAAQNKKLYFTGGDGQFLANYFDHAIYDKLLIFRGMKKIIKENPNLLYEGHHHHHH”: “not failed”.

With “MSLLPLPFTVHFDPTNQELLLSGKMRPESAAEITDALKLVQQSLEKYSGVVYVNVKRLTHINMTAFAALADILAASSRIRPERKIVIITSSVVAWSTSLFQTLAASQPSLSVEVYDSAFYPGQSFVEDETFIPILRTQTKMTWRHERELLPRHGLRSGLVIADICCGIGDFAALVQREFKPARLVALDHSVRSLEYARRVAADFDLQGIEYTYGDASQMLLRDNQFDFVTCRHSLQIFNRPEMLLRELYRICKPGGRVYITNEKNSHCLGEPHAESIKWTYEEVAKLFKHFDMDVEMGPKSRHLLADAGFDNIKVDSFMVTNLDGDPQDFADIIEAWENVYAGEMAVRRGDSSDFIRRFRQGFKDHVFAALHPKGYAGWPIWAASGRKPL”, the protein production result is reported as “failed”.

Take “MSLMQLQLTQEWDKTFPLSAKVEHRKVTFANRYGITLAADLYLPKNRGGDRLPAIVIGGPFGAVKEQSSGLYAQTMAERGFVTLAFDPSYTGESGGQPRNVASPDINTEDFSAAVDFISLLPEVNRERIGVIGICGWGGMALNAVAVDKRIKAVVTSTMYDMTRVMSKGYNDSVTLEQRTRTLEQLGQQRWKDAESGTPAYQPPYNELKGGEAQFLVDYHDYYMTPRGYHPRAVNSGNAWTMTTPLSFMNMPILTYIKEISPRPILLIHGERAHSRYFSEIAYAAAAEPKELLIVPGASHVDLYDRLDRIPFDRIAGFFDEHLEGHHHHHH”: the protein production result is “not failed”. With “MSLNIKEASEKSGVSADTIRYYERIGLIPPIHRNESGVRKFGAEDLRWILFTRQMRRAGLSIEALIDYLALFREGEHTLEARAELLKKQRIELKNRIDVMQEALDRLDFKIDNYDTHLIPAQEELKDFNVERSNEGHHHHHH”, the protein production result is reported as “not failed”. The same measure for “MSLNKKVFIIDKQTVYQEIDNFSASDAWRCAFIGKNWPQEKKEKIADLLFKREFDEKGNPIGMALTNWRVNIGAGSYENREAKEVDNSWNRTECFLSPDGKYDFTKQAGQQWFMKAARERGMNNFLFFTNSAPYFMTRSASTVSTDQDCINLQNDKFDDFARFLVKSAQHFREQGFHVNYISPNNEPNGQWHANSFQEGSFATKADLYRMVEELDKAISEAQIDTKILIPEVGDMKYLFEIDSIAKTPDDIIHSMFYKDGQYSVLKFKNLFNCVAAHDYWSAYPATLLVDIRNRIHKELSANGHNTKFWASEYCILEKNEEITMPASPERSINLGLYVARIIHNDLTLANASAWQWWTAVSLGEDVPIQLLPLEGSNGLSLQYDGEISTTKMLWTTANYSFFVRPGMKRIAIKPTYKISDLEAATSLMISSYTDGKEVVTVAINYSKENQVISLNCDHAQKGKVYLTTIDKNLRYMGEQPLKKLQLPARSVATIVVEDNEGHHHHHH”: “not failed”; for “MSLNSAAQAQSSDPVVIGCPAPLTGIVAADGIEFQRGIQMAADEINAVGGILGRPIELVFADTQSKGVDVVIQSAQRLIDRDNASALIAGYNLENGTALHDVAADAGVIAMHANTVAVHDEMVKSDPDRYWGTFQYDPPETLYGGGFLKFLKDIEDNGEFSRPNNKIAIITGPGIYSVNIANAIRDGAGEYGYDVSLFETVAIPVSDWGPTLAKLRADPPAVIVVTHFYPQDQALFMNQFMTDPTNSLVYLQYGASLAAFRDIAGDNSVGVTYATVLGTLQDEMGDAFAKAYKERYGDLSSTASGCQTYSALYAYSIAAALAGGPGAPYDDVQNKAVADRLRSLIFRGPVGTMRFHADTQSAWSYPTETNDPSLGMPHIFSQIFDKAEDGVLIAPAPYKKAGFKMPPWMKGEGHHHHHH”: “not failed”; for “MSLNVKNDFSILIIEDDKEFADMLTQFLENLFPYAKIKIAYNPFDAGDLLHTVKPDVVMLDLMMVGMDGFSICHRIKSTPATANIIVIAMTGALTDDNVSRIVALGAETCFGKPLNFTLLEKTIKQLVEQKKATSEGHHHHHH”: “not failed”. For the sequence “MSLNYIEDIKNYIPFNEQEERDKELFLRCLNDFHDILTRDNTIAHLTSSAFAVNKERNKFLMIHHNIYNSWAWTGGHSDNEKDQLKVAIKELKEETGVKNPTPLLDKAFALDVLTVNGHIKRGKYVSSHLHLNLTYLIECSEDETLMLKEDENSGVMWIPFNEISKYCSEPHMIPIYEKLINKLKTQSKEGHHHHHH”, the protein production entry is listed as “not failed”.

For the sequence “MSLPANKLVFVGGMGAGKTTAVRSISDVEPVSTEMPLSQDAYGDKTYTTVALDYSSIELEDGELLHVYGVPGQKYLDFMWPLVCDGALGVIVLTNARDPQMLTATLELLREFSQIAPEASLAVGITMTDEVEDFLVPPFREALVAEGFRVPVMRVDARSATQITFLVKSLLSYRYTSATSLEHHHHHH”, the protein production result was “not failed”. The same measure for “MSLPTFRIIGFIIGIFLITLAVAMIVPMATLVIYDRFEDLRSFLWASAITFIAGLALVVPGRPDNVQLRPRDMYMLTVSSWIVVCIFAALPFLLTQHISYTDSFFESMSGITATGSTVLSHLDSMSPGILIWRSMLHWLGGIGFIGMAVAILPLLRIGGMRLFQTESSDRSEKVMPRSHMVAKFIVLAYVGFTALGSLAFWAAGMSLFDAINHAMSAISTGGFSTSDLSLARWPQPAVHWVAIVVMILGSLPFTLYVATLRGNRKALIKDEQVQGLIGLLLITWLVMTVWYANTTDLPWTEALRHVALNVTSVVTTTGFALGDYSLWGNFSLMLFFYLGFIGGCSGSTAGGVKIFRFQVAYILLKTNLNQLIHPRAVMKQKYNGHRLDDEIVRSILTFSFFFTITICLIALMLSLLGLDWMTALTGAASTVSGVGPGLGEVIGPAGNFSTLPDAAKWILSGGMLLGRLEIITVLVLCVPAFWRH”: “failed”; for “MSLQPKLLLVLKGDSNAYWRQVYLGAQKAADEAGVTLLHRSTKDDGDIAGQIQILSYHLSQAPPDALILAPNSAEDLTPSVAQYRARNIPVLVVDSDLAGDAHQGLVATDNYAAGQLAARALLATLDLSKERNIALLRLRAGNASTDQREQGFLDVLRKHDKIRIIAAPYAGDDRGAARSEMLRLLKETPTIDGLFTPNESTTIGALVAIRQSGMSKQFGFIGFDQTEELEAAMYAGEISNLVVQNPEYMGYLAVQRALDLVRGKPIPAFTDTGVRLLQEGHHHHHH”: “not failed”; for “MSLRDYTRKRRFDQTPEPAEDAAATAHRQPIFVVQLHHASSRHYDFRLEADGVLKSWAVPKGPSLRAGEKRLAVQVEDHPLAYAGFEGDIPQGQYGAGHVQVFDHGTWHCDGDALAALDAGKLDFDLQGDKLRGGFALVRTRLRGRQPQWLLIKRDDAHAADLDADALVADSDATAQAIETPSAAAAPARRAKASRRRRTPAEALVTEKSASASRPRASAATQAHWRTRALALPGARDAACPTGLRAQLTLLRAEAPDGAQWPHEIKWDGYRLLTDLVDGRAQLRSRNDQAWTDSFPEVATAVQALPVRDARLDGELVVLDAQGRSDFSALQRAIDGTARQPLRYLVFDLLGVAGVDLRATPLLERKQLLRALLGETPGTLAYSAHVIGRGPEVFAASADKGWEGIVSKRADAPYRGGRSADWVKTKHEDSDEFVVVGYTDPKGARSGFGALLLAQLDGTQLRYVGRVGTGFDSALLGEITAQLQALHSPQPTLELPAHIPSRPRDVHWVRPVLIAEVAFRGWAKQGLLRQAAFKRLREDKPMSDLGGDRATPGKSRGARTRTAAAAAGKASRAAATRTAAVSAGGSAAKPGKAGKSSTAADVSTPSRVAKQRVTPAASSAAKPGKPGKSSAAATGTASPRAAKRGAVSTASASSTPKSGKRSVSSGSAASGKPAAPSKAASSKTARTPATSSARKTSTATAASSIRKARASASNAPDGVAITHPERVVFPAAGISKGDVAAYYRAVAPLVLPEIARRPLSLLRCPDGAAGACFFQKHEGRHLGAHIKAIPLKQKSGTEDYLYIEDVAGLLELVQMNTLELHPWGARVDDPEHPDRLVFDLDPGEGVAWTQVVAAAREIRSKLRAAGLESAVRLSGGKGLHVVVPIVPQASWDQARDFCEAFAQALATQAPERYVATMSKAKRHGVIFVDWLRNGRGNTSVCSWSLRAREHATVAVPLRWEELGKLSGPDAFPLDKAVQRAKRQRNDPWADVLALKQVLPG”: “failed”. For “MSLRIGVIGLGRIGTIHAENLKMIDDAILYAISDVREDRLREMKEKLGVEKAYKDPHELIEDPNVDAVLVCSSTNTHSELVIACAKAKKHVFCEKPLSLNLADVDRMIEETKKADVILFTGFNRRFDRNFKKLKEAVENGTIGKPHVLRITSRDPAPPPLDYIRVSGGIFLDMTIHDFDMARYIMGEEVEEVFADGSVLVDEEIGKAGDVDTAVVVLRFKSGALGVIDNSRRAVYGYDQRIEVFGSKGRIFADNVRETTVVLTDEQGDRGSRYLYFFLERYRDSYLEELKTFIKNVKSGEPPAVSGEDGKMALLLGYAAKKSLEEKRSVKLEEVIGEGHHHHHH” the value was “not failed”; for “MSLRIRVPATTANLGPGFDSCGLALTLYLTLDIGAEADSWYIEHNIGGGIPHDETNVIIETALNLAPNLTPHHLVMTCDIPPARGLGSSSAAVVAGIELANTLAELNLSKEEKVRIAAEIEGHPDNVAPAVLGNWVVGAKLDGEDFYVRHLFPDCALIAFIPKAELLTSESRGVLPDTLPFKEAVQASSIANVMIAAILRNDMALAGEMMERDLWHEKYRSQLVPHLTQIRDVAKSQGAYAACLSGAGPTVLVFAPRNLANTLQTSLQTLEIDADVLLLDVEGSGAEVFREGHHHHHH”, “not failed”; for “MSLRITRIRLYKTDLPYVDGSYGWGAGNAITVARASVVVIDTDAGLQGCGEFTPCGENYMIAHSEGVDAFARLAAPQLLGQDPRQVARMERLMDHLVQGHGYAKAPFDAAFWDILGQATGQPVWMLLGGKLCDGAPMYRVAPQRSEAETRAELARHRAAGYRQFQIKVGADWQSDIDRIRACLPLLEPGEKAMADANQGWRVDNAIRLARATRDLDYILEQPCRSYEECQQVRRVADQPMKLDECVTGLHMAQRIVADRGAEICCLKISNLGGLSKARRTRDFLIDNRMPVVAEDSWGGEIASAAVAHFAASTPEEFLINSTDLMNYNTRSTGLGGPTVHQGRLYASDTPGLGVTPDFNSLGAPVADWALPEGHHHHHH”, “not failed”.
